# Results reported in patent US20160304571.
# B1: USP15 (protein)
# chain: MAEGGAADLDTQRSDIATLLKTSLRKGDTWYLVDSRWFKQWKKYVGFDSWDKYQMGDQNVYPGPIDNSGLLKDGDAQSLKEHLIDELDYILLPTEGWNKLVSWYTLMEGQEPIARKVVEQGMFVKHCKVEVYLTELKLCENGNMNNVVTRRFSKADTIDTIEKEIRKIFSIPDEKETRLWNKYMSNTFEPLNKPDSTIQDAGLYQGQVLVIEQKNEDGTWPRGPSTPKSPGASNFSTLPKISPSSLSNNYNNMNNRNVKNSNYCLPSYTAYKNYDYSEPGRNNEQPGLCGLSNLGNTCFMNSAIQCLSNTPPLTEYFLNDKYQEELNFDNPLGMRGEIAKSYAELIKQMWSGKFSYVTPRAFKTQVGRFAPQFSGYQQQDCQELLAFLLDGLHEDLNRIRKKPYIQLKDADGRPDKVVAEEAWENHLKRNDSIIVDIFHGLFKSTLVCPECAKISVTFDPFCYLTLPLPMKKERTLEVYLVRMDPLTKPMQYKVVVPKIGNILDLCTALSALSGIPADKMIVTDIYNHRFHRIFAMDENLSSIMERDDIYVFEININRTEDTEHVIIPVCLREKFRHSSYTHHTGSSLFGQPFLMAVPRNNTEDKLYNLLLLRMCRYVKISTETEETEGSLHCCKDQNINGNGPNGIHEEGSPSEMETDEPDDESSQDQELPSENENSQSEDSVGGDNDSENGLCTEDTCKGQLTGHKKRLFTFQFNNLGNTDINYIKDDTRHIRFDDRQLRLDERSFLALDWDPDLKKRYFDENAAEDFEKHESVEYKPPKKPFVKLKDCIELFTTKEKLGAEDPWYCPNCKEHQQATKKLDLWSLPPVLVVHLKRFSYSRYMRDKLDTLVDFPINDLDMSEFLINPNAGPCRYNLIAVSNHYGGMGGGHYTAFAKNKDDGKWYYFDDSSVSTASEDQIVSKAAYVLFYQRQDTFSGTGFFPLDRETKGASAATGIPLESDEDSNDNDNDIENENCMHTN
# Assays:
# [1] = molecular target: Lys63-linked diubiquitin (enzymatically assembled), P0CG48
# Chain of Lys63-linked diubiquitin (enzymatically assembled), P0CG48 (P0CG48 whole entry, looked up): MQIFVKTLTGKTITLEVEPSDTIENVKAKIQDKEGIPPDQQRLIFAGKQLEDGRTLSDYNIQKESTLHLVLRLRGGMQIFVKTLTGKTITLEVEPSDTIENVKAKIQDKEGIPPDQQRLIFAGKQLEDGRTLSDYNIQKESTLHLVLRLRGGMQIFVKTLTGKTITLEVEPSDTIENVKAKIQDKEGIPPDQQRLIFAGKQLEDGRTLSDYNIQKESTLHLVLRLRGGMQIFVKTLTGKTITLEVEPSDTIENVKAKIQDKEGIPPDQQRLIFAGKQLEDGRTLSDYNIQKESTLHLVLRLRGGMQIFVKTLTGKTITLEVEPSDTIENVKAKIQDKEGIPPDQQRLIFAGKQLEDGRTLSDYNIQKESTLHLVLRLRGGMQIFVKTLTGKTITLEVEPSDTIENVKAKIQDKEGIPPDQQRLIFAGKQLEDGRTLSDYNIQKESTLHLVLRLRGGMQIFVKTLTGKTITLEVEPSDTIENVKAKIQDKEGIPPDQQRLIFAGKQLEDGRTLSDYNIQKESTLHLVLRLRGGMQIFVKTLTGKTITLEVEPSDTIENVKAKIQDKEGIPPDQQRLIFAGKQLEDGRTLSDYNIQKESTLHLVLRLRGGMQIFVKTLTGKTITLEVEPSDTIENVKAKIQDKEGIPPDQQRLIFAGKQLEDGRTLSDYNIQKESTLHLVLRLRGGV
# [2] = molecular target: Lys29-linked diubiquitin, P0CG48
# Chain of Lys29-linked diubiquitin, P0CG48 (P0CG48 whole entry, looked up): as above
# [3] = molecular target: Lys6-linked diubiquitin, P0CG48
# Chain of Lys6-linked diubiquitin, P0CG48 (P0CG48 whole entry, looked up): as above
protein,measurement,setting,value
B1,cleavage in in vitro deubiquitinase assay (SDS-PAGE),[1],disassembled this chain type as efficiently as K63-linked chains
same,cleavage in in vitro deubiquitinase assay (SDS-PAGE),[2],"appreciably higher resistance to hydrolysis by USP2, USP15 and USP21 than K6- and K63-linked ubiquitin"
same,cleavage in in vitro deubiquitinase assay (SDS-PAGE),[3],disassembled this chain type as efficiently as K63-linked chains
